Results reported in publication PMC11525548.
pKd: −log10 of the molar value.

Molecular target: tusa Fab+Fc light chain Pro95Ala variant (human) (UniProt P01834)
Experiment: SPR

“human CEACAM5 extracellular domain (from UniProt P06731 35-685) (domain or fragment)” gave a pKd of 4.87.

With “human CEACAM5 extracellular domain (from UniProt P06731 35-685) (domain or fragment)” the koff was 0.0177 s⁻¹.

Substance “human CEACAM5 extracellular domain (from UniProt P06731 35-685) (domain or fragment)” has a kon of 1310 M⁻¹ s⁻¹.

Molecular target: human CEACAM5 extracellular domain (Homo sapiens) (UniProt P06731)
Experiment: SPR

First: tusa Fab+Fc heavy chain Phe29Ala variant (antibody)
Second: tusa Fab+Fc heavy chain Tyr50Ala variant (antibody)
The pKd of the first is 2.39 log units higher: 8.09 for the first, 5.70 for the second.

“tusa Fab+Fc light chain Phe30Ala variant (antibody)” and “tusa Fab+Fc light chain Tyr92Ala variant (antibody)” are within 0.2 log units of each other in pKd: 5.87 for the first, 5.75 for the second.

“tusa Fab+Fc heavy chain Ser53Ala variant (antibody)” and “tusa Fab+Fc light chain Ser31Ala variant (antibody)” are within 0.2 log units of each other in pKd: 8.25 for the first, 8.09 for the second.

Compared with “tusa Fab+Fc heavy chain His99Ala variant (antibody)”, “tusa Fab+Fc heavy chain Gly26Ala variant (antibody)” is 1.58 log units higher in pKd: 6.51 for the first, 8.09 for the second.

First: tusamitamab antigen-binding fragment region plus the fragment crystallizable region, wild type (antibody)
Second: tusa Fab+Fc heavy chain Ser30Ala variant (antibody)
The pKd of the first is 0.32 log units lower: 7.85 for the first, 8.17 for the second.

First: tusa Fab+Fc heavy chain Phe29Ala variant (antibody)
Second: tusa Fab+Fc heavy chain Tyr50Ala variant (antibody)
The koff of the first is 14-fold lower: 0.00368 s⁻¹ for the first, 0.0531 s⁻¹ for the second.

First: tusa Fab+Fc light chain Phe30Ala variant (antibody)
Second: tusa Fab+Fc light chain Tyr92Ala variant (antibody)
The koff of the first is 1.5-fold lower: 0.0362 s⁻¹ for the first, 0.0552 s⁻¹ for the second.

First: tusa Fab+Fc light chain Ser31Ala variant (antibody)
Second: tusa Fab+Fc heavy chain His99Ala variant (antibody)
The koff of the first is 8.4-fold lower: 0.00238 s⁻¹ for the first, 0.0199 s⁻¹ for the second.

Going from “tusa Fab+Fc heavy chain Gly26Ala variant (antibody)” to “tusa Fab+Fc light chain His91Ala variant (antibody)”, the koff rises from 0.00322 s⁻¹ to 0.0637 s⁻¹ (20-fold).

Compared with “tusamitamab antigen-binding fragment region plus the fragment crystallizable region, wild type (antibody)”, “tusa Fab+Fc heavy chain Ser30Ala variant (antibody)” is 1.9-fold lower in koff: 0.00386 s⁻¹ for the first, 0.00205 s⁻¹ for the second.

“tusa Fab+Fc heavy chain Tyr50Ala variant (antibody)” and “tusa Fab+Fc light chain Tyr92Ala variant (antibody)” are within 1.5-fold of each other in kon: 26400 M⁻¹ s⁻¹ for the first, 30800 M⁻¹ s⁻¹ for the second.

“tusa Fab+Fc heavy chain Ser53Ala variant (antibody)” and “tusa Fab+Fc light chain Ser31Ala variant (antibody)” are within 1.5-fold of each other in kon: 321000 M⁻¹ s⁻¹ for the first, 291000 M⁻¹ s⁻¹ for the second.

Going from “tusa Fab+Fc heavy chain His99Ala variant (antibody)” to “tusa Fab+Fc heavy chain Gly26Ala variant (antibody)”, the kon rises from 64800 M⁻¹ s⁻¹ to 395000 M⁻¹ s⁻¹ (6.1-fold).

First: tusa Fab+Fc light chain His91Ala variant (antibody)
Second: tusamitamab antigen-binding fragment region plus the fragment crystallizable region, wild type (antibody)
The kon of the first is 3.8-fold lower: 73200 M⁻¹ s⁻¹ for the first, 275000 M⁻¹ s⁻¹ for the second.

Substance “tusa Fab+Fc heavy chain Ser30Ala variant (antibody)” has a kon of 307000 M⁻¹ s⁻¹.

“tusa Fab+Fc light chain Phe30Ala variant (antibody)” showed a t1/2 of dissociation of 18 s.
